Data reported in patent US20250051465A1 (published 2025).

T1: human LEPR extracellular domain expressed with a C-terminal mouse IgG2a Fc tag (hLEPR.mFc) (human)
T1 construct: also called dimeric human LEPR
T1 chain: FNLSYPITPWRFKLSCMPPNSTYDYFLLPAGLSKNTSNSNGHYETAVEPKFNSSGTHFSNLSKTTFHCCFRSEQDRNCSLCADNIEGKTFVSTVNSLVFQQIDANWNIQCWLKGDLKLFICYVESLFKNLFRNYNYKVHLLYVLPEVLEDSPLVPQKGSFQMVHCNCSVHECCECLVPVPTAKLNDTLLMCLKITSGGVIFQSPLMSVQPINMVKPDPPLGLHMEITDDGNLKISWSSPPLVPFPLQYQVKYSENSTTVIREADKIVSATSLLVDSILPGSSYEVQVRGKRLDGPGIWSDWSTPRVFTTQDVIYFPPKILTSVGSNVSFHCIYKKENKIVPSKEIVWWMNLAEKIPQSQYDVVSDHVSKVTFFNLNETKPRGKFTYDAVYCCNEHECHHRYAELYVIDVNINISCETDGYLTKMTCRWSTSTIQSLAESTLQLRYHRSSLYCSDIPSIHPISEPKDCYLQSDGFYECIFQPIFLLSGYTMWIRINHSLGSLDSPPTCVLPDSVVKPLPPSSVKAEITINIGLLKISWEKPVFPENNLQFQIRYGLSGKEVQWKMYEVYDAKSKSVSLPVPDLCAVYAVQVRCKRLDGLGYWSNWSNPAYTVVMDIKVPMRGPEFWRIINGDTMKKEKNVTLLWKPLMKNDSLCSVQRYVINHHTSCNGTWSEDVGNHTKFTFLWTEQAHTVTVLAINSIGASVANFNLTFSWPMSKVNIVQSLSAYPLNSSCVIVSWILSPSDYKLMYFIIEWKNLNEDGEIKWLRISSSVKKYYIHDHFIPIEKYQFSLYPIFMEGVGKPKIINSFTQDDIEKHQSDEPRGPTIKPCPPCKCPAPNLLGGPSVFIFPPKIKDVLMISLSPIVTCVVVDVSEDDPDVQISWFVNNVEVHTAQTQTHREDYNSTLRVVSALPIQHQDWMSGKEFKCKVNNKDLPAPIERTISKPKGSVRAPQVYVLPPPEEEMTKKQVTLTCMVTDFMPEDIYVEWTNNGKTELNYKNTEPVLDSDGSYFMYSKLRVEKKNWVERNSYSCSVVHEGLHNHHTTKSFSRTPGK


What was measured:
[1] = target: T2, human LEPR extracellular domain expressed with a C-terminal myc-myc-hexahistidine tag (hLEPR.mmh) (human, UniProt P48357 22-839); test: SPR, captured mAb, 25C
T2 construct: also called human LEPR-MMH; monomeric human LEPR
Protocol: (§1) Equilibrium dissociation constants (KD values) for LEPR binding to purified anti-LEPR monoclonal antibodies were determined using a real-time surface plasmon resonance biosensor using a Biacore 4000 instrument. All binding studies were performed in 10 mM HEPES, 150 mM NaCl, 3 mM EDTA, and 0.05% v/v Surfactant Tween-20, pH 7.4 (HBS-ET) running buffer at 25° C. and 37° C. The Biacore sensor surface was first derivatized by amine coupling with a monoclonal mouse anti-human Fc antibody (GE, #BR-1008-39) to capture anti-LEPR monoclonal antibodies. […] Kinetic association (kₐ) and dissociation (kd) rate constants were determined by fitting the real-time binding sensorgrams to a 1:1 binding model with mass transport limitation using Scrubber 2.0c curve-fitting software. Binding dissociation equilibrium constants (KD) and dissociative half-lives (t½) were calculated from the kinetic rate constants as: […]

[2] = target: T1, human LEPR extracellular domain …; test: SPR, captured mAb, 25C
Protocol: as §1

[3] = target: T2, human LEPR extracellular domain …; test: SPR, captured mAb, 37C
Protocol: as §1

[4] = target: T1, human LEPR extracellular domain …; test: SPR, captured mAb, 37C
Protocol: as §1

[5] = target: T2, human LEPR extracellular domain …; test: Luminex, myc-captured full length extracellular domain
Protocol: Aliquots of microspheres with immobilized anti-myc monoclonal antibodies, prepared as described above, were added individually to 1 mL of the each of these protein supernatants. The microspheres were gently mixed, incubated for two hours at 25° C., washed twice with 1 mL of DBPS, centrifuged to remove the supernatant and finally resuspended in 1 mL of DPBS buffer. Forty-eight μL of anti-myc IgG coupled microspheres from individual reactions with full length human LEPR and with each of the human LEPR domain proteins were withdrawn and mixed together in 3.6 mL of PBS+20 mg/mL BSA+0.05% sodium azide (blocking buffer).
From this mixed pool, 75 μL of microspheres were plated per well on a 96 well filter plate (Millipore, Cat. No: MSBVN1250) and mixed with 25 μL of individual anti-human LEPR monoclonal antibodies (0.5 or 5 µg/mL), incubated for two hours at 25° C. and then washed twice with 200 μL of DPBS with 0.05% Tween 20 (washing buffer). […] After 30 minutes, the samples were washed twice with 200 μL of washing buffer and resuspended in 150 μL of wash buffer. The Median Fluorescence intensity (MFI) of the microspheres was measured in a Luminex Analyzer.

[6] = target: T3, Macaca fascicularis LEPR extracellular domain expressed with a C-terminal myc-myc-hexahistidine tag … (Macaca fascicularis, UniProt Q9MYL0 22-837 (rhesus entry)); test: SPR, captured mAb, 25C
T3 construct: also called mfLEP.MMH
Protocol: as §1

[7] = target: T3, Macaca fascicularis LEPR extracellular …; test: SPR, captured mAb, 37C
Protocol: as §1

| 100 nM hLEPR-MMH Bound (RU) [1] | Kd [1] | koff [1] | kon [1] | t½ [1] | 100 nM hLEPR-mFc Bound (RU) [2] | Kd [2] | koff [2] | kon [2] | t½ [2] | 100 nM hLEPR-MMH Bound (RU) [3] | Kd [3] | koff [3] | kon [3] | t½ [3] | 100 nM hLEPR-mFc Bound (RU) [4] | Kd [4] | koff [4] | kon [4] | t½ [4] | Binder | other results |
| --- | --- | --- | --- | --- | --- | --- | --- | --- | --- | --- | --- | --- | --- | --- | --- | --- | --- | --- | --- | --- | --- |
| 22 RU | 75.4 nM | 0.00226 s⁻¹ | 30000 M⁻¹ s⁻¹ | 5.1 min | 51 RU | 4.7 nM | 0.000244 s⁻¹ | 51900 M⁻¹ s⁻¹ | 47 min | 32 RU | 170 nM | 0.00576 s⁻¹ | 33800 M⁻¹ s⁻¹ | 2 min | 82 RU | 8.53 nM | 0.000598 s⁻¹ | 70200 M⁻¹ s⁻¹ | 19 min | H4H18438P2 (antibody, human IgG4, V domains shown, Fully human antibody with human IgG4 Fc (H4H prefix)) VH: QVQLVESGGGVVQPGRSLRLSCAASGFSFNTYGMHWVRQAPGKGLEWVTIIWYDGSIKYYADSVKGRFTISRDNSKNTLYLQMNSLRAEDTAVYYCARGGYSGYLYFDYWGQGTLVTVSS VL: not shown | MFI [5]: 6250 MFI |
| 54 RU | 8.08 nM | 0.000235 s⁻¹ | 29100 M⁻¹ s⁻¹ | 49 min | 116 RU | 0.964 nM | 6.82e-05 s⁻¹ | 70500 M⁻¹ s⁻¹ | 169 min | 73 RU | 20.7 nM | 0.000815 s⁻¹ | 39400 M⁻¹ s⁻¹ | 14 min | 148 RU | 1.26 nM | 0.000168 s⁻¹ | 133000 M⁻¹ s⁻¹ | 69 min | H4H18449P2 (antibody, human IgG4, V domains shown, Fully human antibody with human IgG4 Fc (H4H prefix)) VH: EVQLVESGGGLVQPGGSLRLSCVASGFTFNKYDMHWVRQTTGKGLEWVSGIDTDGDTYYPGSVKGRFTISRENAENSLYLQMNGLRVGDTAVYYCARWPWSGFYGAFDIWGQGTMVTVSS VL: not shown | MFI [5]: 7980 MFI |
| 45 RU | 108 nM | 0.00478 s⁻¹ | 44200 M⁻¹ s⁻¹ | 2.4 min | 76 RU | 4.03 nM | 0.000492 s⁻¹ | 122000 M⁻¹ s⁻¹ | 23 min | 38 RU | 326 nM | 0.0168 s⁻¹ | 51300 M⁻¹ s⁻¹ | 0.7 min | 104 RU | 3.89 nM | 0.000608 s⁻¹ | 156000 M⁻¹ s⁻¹ | 19 min | H4H18445P2 (antibody, human IgG4, V domains shown, Fully human antibody with human IgG4 Fc (H4H prefix)) VH: QVQLQESGPGLVKPSQTLSLTCTVSGGSISSGGDYWSWIRQLPGKGLEWIGYIYYSGSAYYNPSLKSRGTISIDTSKNQFSLKLTSVTAADTAVYFCVKLRFLEWFLGGWFGPWGQGTLVTVSS VL: not shown | 100 nM mfLEP.MMH Bound (RU) [6]: 58 RU; Kd [6]: 82.4 nM; koff [6]: 0.00486 s⁻¹; kon [6]: 59000 M⁻¹ s⁻¹; t½ [6]: 2.4 min; 100 nM mfLEPR.MMH Bound (RU) [7]: 48 RU; Kd [7]: 264 nM; koff [7]: 0.019 s⁻¹; kon [7]: 71700 M⁻¹ s⁻¹; t½ [7]: 0.6 min; MFI [5]: 6570 MFI |
| 39 RU | 10.5 nM | 0.000246 s⁻¹ | 23400 M⁻¹ s⁻¹ | 47 min | 78 RU | 1.66 nM | 9.68e-05 s⁻¹ | 58400 M⁻¹ s⁻¹ | 119 min | 61 RU | 21.9 nM | 0.000842 s⁻¹ | 38400 M⁻¹ s⁻¹ | 14 min | 116 RU | 2.56 nM | 0.00031 s⁻¹ | 121000 M⁻¹ s⁻¹ | 37 min | H4H16679P2 (antibody, human IgG4, V domains shown, Fully human antibody with human IgG4 Fc (H4H prefix)) VH: QVQLVESGGGVVQPGRSLRLSCTASGFTFSSYAMYWVRQAPGKGLEWVSVIYYDGSYKYYADSVKGRFTISRDNSKNTLYLQMDSLRAEDTAVYYCASYNWNYWYFDFWGRGTLVTVSS VL: not shown | 100 nM mfLEP.MMH Bound (RU) [6]: 66 RU; Kd [6]: 3.22 nM; koff [6]: 0.000141 s⁻¹; kon [6]: 43700 M⁻¹ s⁻¹; t½ [6]: 82 min; 100 nM mfLEPR.MMH Bound (RU) [7]: 104 RU; Kd [7]: 10.4 nM; koff [7]: 0.000677 s⁻¹; kon [7]: 64900 M⁻¹ s⁻¹; t½ [7]: 17 min; MFI [5]: 7510 MFI |
| 51 RU | 7.93 nM | 0.000223 s⁻¹ | 28100 M⁻¹ s⁻¹ | 52 min | 102 RU | 0.785 nM | 8.32e-05 s⁻¹ | 106000 M⁻¹ s⁻¹ | 139 min | 77 RU | 19.8 nM | 0.000958 s⁻¹ | 48500 M⁻¹ s⁻¹ | 12 min | 145 RU | 1.79 nM | 0.00028 s⁻¹ | 157000 M⁻¹ s⁻¹ | 41 min | H4H16650P2 (antibody, human IgG4, V domains shown, Fully human antibody with human IgG4 Fc (H4H prefix)) VH: QVQLVESGGGVVQPGKSLRLSCVASGFTFSSDAMYWVRQAPGKGLEWVAVIYYDGNYQYYEDSVKGRFTISRDNSQNTLDLQMNSLRVDDTAVYFCARLNWDYWYLDLWGRGTLVTVSS VL: not shown | 100 nM mfLEP.MMH Bound (RU) [6]: 93 RU; Kd [6]: 2.27 nM; koff [6]: 0.000137 s⁻¹; kon [6]: 60200 M⁻¹ s⁻¹; t½ [6]: 84 min; 100 nM mfLEPR.MMH Bound (RU) [7]: 134 RU; Kd [7]: 5.76 nM; koff [7]: 0.0007 s⁻¹; kon [7]: 122000 M⁻¹ s⁻¹; t½ [7]: 16 min; MFI [5]: 7600 MFI |
| 28 RU | 129 nM | 0.0079 s⁻¹ | 61400 M⁻¹ s⁻¹ | 1.5 min | 90 RU | 4.04 nM | 0.000563 s⁻¹ | 140000 M⁻¹ s⁻¹ | 21 min | 22 RU | 233 nM | 0.018 s⁻¹ | 77000 M⁻¹ s⁻¹ | 0.6 min | 111 RU | 5.64 nM | 0.00105 s⁻¹ | 185000 M⁻¹ s⁻¹ | 11 min | H4H18417P2 (antibody, human IgG4, V domains shown, Fully human antibody with human IgG4 Fc (H4H prefix)) VH: QVQLVESGGGVVQPGRSLRLSCAASGFTFSTYGMHWVRQAPGKGLEWVSVISYDESNKYYADSVKGRFTISRDNSKNALYLQMNSLRNEDTAVYYCARDRPFGLVTGWFDPWGQGTLVTVSS VL: not shown | 100 nM mfLEP.MMH Bound (RU) [6]: 33 RU; Kd [6]: 139 nM; koff [6]: 0.0123 s⁻¹; kon [6]: 88300 M⁻¹ s⁻¹; t½ [6]: 0.9 min; 100 nM mfLEPR.MMH Bound (RU) [7]: 28 RU; Kd [7]: 217 nM; koff [7]: 0.0263 s⁻¹; kon [7]: 122000 M⁻¹ s⁻¹; t½ [7]: 0.4 min; MFI [5]: 4890 MFI |
